Measurements taken from the supplement of paper PMC11246515.
± gives the standard deviation of the averaged measurements.

Experiment: total protein half-life in vivo (active degradation + dilution); higher = more stable protein
[1] = E. coli NCM3722 delta-clpP delta-lon delta-hslV, growth: N-lim chemostat, doubling time 6 h
[2] = E. coli NCM3722 delta-clpP, growth: N-lim chemostat, doubling time 6 h
[3] = E. coli NCM3722 delta-hslV, growth: N-lim chemostat, doubling time 6 h
[4] = E. coli NCM3722 delta-lon, growth: N-lim chemostat, doubling time 6 h
[5] = E. coli NCM3722 delta-smpB, growth: N-lim chemostat, doubling time 6 h
[6] = wild type E. coli NCM3722, growth: C-lim chemostat, doubling time 3 h
[7] = wild type E. coli NCM3722, growth: C-lim chemostat, doubling time 6 h
[8] = wild type E. coli NCM3722, growth: C-lim chemostat, doubling time 12 h
[9] = wild type E. coli NCM3722, growth: N-lim chemostat, doubling time 6 h
[10] = wild type E. coli NCM3722, growth: N-lim chemostat, doubling time 12 h
[11] = wild type E. coli NCM3722, growth: P-lim chemostat, doubling time 6 h
[12] = wild type E. coli NCM3722, growth: P-lim chemostat, doubling time 12 h

Sequence | total protein half-life in vivo [1] | total protein half-life in vivo [2] | total protein half-life in vivo [3] | total protein half-life in vivo [4] | total protein half-life in vivo [5] | total protein half-life in vivo [6] | total protein half-life in vivo [7] | total protein half-life in vivo [8] | total protein half-life in vivo [9] | total protein half-life in vivo [10] | total protein half-life in vivo [11] | total protein half-life in vivo [12]
MTRPIQASLDLQALKQNLSIVRQAATHARVWSVVKANAYGHGIERIWSAIGATDGFALLNLEEAITLRERGWKGPILMLEGFFHAQDLEIYDQHRLTTCVHSNWQLKALQNARLKAPLDIYLKVNSGMNRLGFQPDRVLTVWQQLRAMANVGEMTLMSHFAEAEHPDGISGAMARIEQAAEGLECRRSLSNSAATLWHPEAHFDWVRPGIILYGASPSGQWRDIANTGLRPVMTLSSEIIGVQTLKAGERVGYGGRYTARDEQRIGIVAAGYADGYPRHAPTGTPVLVDGVRTMTVGTVSMDMLAVDLTPCPQAGIGTPVELWGKEIKIDDVAAAAGTVGYELMCALALRVPVVTV | 4.49 ± 0.56 h | 3.6 ± 0.35 h | 3.14 ± 0.1 h | 3.89 ± 0.29 h | 3.37 ± 0.47 h | 3.16 ± 0.19 h | 6.2 ± 0.25 h | 9.9 ± 0.72 h | 3.6 ± 0.21 h | 5.1 ± 0.33 h | 6.81 ± 1.4 h | 11.9 ± 1.2 h
MKVKVLSLLVPALLVAGAANAAEVYNKDGNKLDLYGKVDGLHYFSDNKDVDGDQTYMRLGFKGETQVTDQLTGYGQWEYQIQGNSAENENNSWTRVAFAGLKFQDVGSFDYGRNYGVVYDVTSWTDVLPEFGGDTYGSDNFMQQRGNGFATYRNTDFFGLVDGLNFAVQYQGKNGNPSGEGFTSGVTNNGRDALRQNGDGVGGSITYDYEGFGIGGAISSSKRTDAQNTAAYIGNGDRAETYTGGLKYDANNIYLAAQYTQTYNATRVGSLGWANKAQNFEAVAQYQFDFGLRPSLAYLQSKGKNLGRGYDDEDILKYVDVGATYYFNKNMSTYVDYKINLLDDNQFTRDAGINTDNIVALGLVYQF | 7.5928 ± 0.0042 h | 6.32 ± 1.1 h | 6.59 ± 0.66 h | 7.2 ± 0.57 h | 6.24 ± 0.51 h | 3.37 ± 0.1 h | 6.64 ± 0.99 h | 11.6 ± 2 h | 5.94 ± 0.54 h | 12.4 ± 1.4 h | 6.7 ± 0.53 h | 13.9 ± 2.6 h
MKRASLLTLTLIGAFSAIQAAWAVDYPLPPTGSRLVGQNQTYTVQEGDKNLQAIARRFDTAAMLILEANNTIAPVPKPGTTITIPSQLLLPDAPRQGIIVNLAELRLYYYPPGENIVQVYPIGIGLQGLETPVMETRVGQKIPNPTWTPTAGIRQRSLERGIKLPPVVPAGPNNPLGRYALRLAHGNGEYLIHGTSAPDSVGLRVSSGCIRMNAPDIKALFSSVRTGTPVKVINEPVKYSVEPNGMRYVEVHRPLSAEEQQNVQTMPYTLPAGFTQFKDNKAVDQKLVDKALYRRAGYPVSVSSGATPAASNAPSVESAQNGEPEQGNMLRVTQ | 5.45 ± 0.37 h | 5.31 ± 0.28 h | 5.75 ± 0.64 h | 5.59 ± 0.22 h | 5.31 ± 0.5 h | 3.12 ± 0.47 h | 6.04 ± 1.4 h | 12.4 ± 2.9 h | 5.2 ± 0.094 h | 9.08 ± 0.15 h | 5.28 ± 0.24 h | 11.2 ± 1.1 h
MWLLDQWAERHIAEAQAKGEFDNLAGSGEPLILDDDSHVPPELRAGYRLLKNAGCLPPELEQRREAIQLLDILKGIRHDDPQYQEVSRRLSLLELKLRQAGLSTDFLRGDYADKLLDKINDN | – | – | 6.32 h | – | – | 3.06 h | – | – | 5.56 h | 12.3 h | 6.15 h | –
MANWQSIDELQDIASDLPRFIHALDELSRRLGLNITPLTADHISLRCHQNATAERWRRGFEQCGELLSENMINGRPICLFKLHEPVQVAHWQFSIVELPWPGEKRYPHEGWEHIEIVLPGDPETLNARALALLSDEGLSLPGISVKTSSPKGEHERLPNPTLAVTDGKTTIKFHPWSIEEIVASEQSA | 5.34 ± 1.4 h | 3.77 ± 0.15 h | 2.73 ± 0.29 h | 3.16 ± 0.24 h | 3.04 ± 0.023 h | 2.231 ± 0.0095 h | 3.62 ± 1.4 h | 5.25 ± 0.3 h | 3.3 h | 3.66 h | 3.83 h | 6.37 ± 1.2 h
MMNFNNVFRWHLPFLFLVLLTFRAAAADTLLILGDSLSAGYRMSASAAWPALLNDKWQSKTSVVNASISGDTSQQGLARLPALLKQHQPRWVLVELGGNDGLRGFQPQQTEQTLRQILQDVKAANAEPLLMQIRLPANYGRRYNEAFSAIYPKLAKEFDVPLLPFFMEEVYLKPQWMQDDGIHPNRDAQPFIADWMAKQLQPLVNHDS [P0ADA1] | 4.1 ± 0.072 h | 4.87 ± 0.67 h | 6.432 ± 0.063 h | 6.67 ± 0.4 h | 4.99 ± 0.46 h | 3.25 ± 0.11 h | 6.228 ± 0.058 h | 11.1 ± 5.7 h | 5.25 ± 0.28 h | 11 ± 3.7 h | 5.23 ± 0.37 h | 11.4 ± 0.78 h
MSIKTIKYFSTIIVAVVAVLAGWWLWNYYMQSPWTRDGKIRAEQVSITPQVSGRIVELNIKDNQLVNAGDLLLTIDKTPFQIAELNAQAQLAKAQSDLAKANNEANRRRHLSQNFISAEELDTANLNVKAMQASVDAAQATLKQAQWQLAQTEIRAPVSGWVTNLTTRIGDYADTGKPLFALVDSHSFYVIGYFEETKLRHIREGAPAQITLYSDNKTLQGHVSSIGRAIYDQSVESDSSLIPDVKPNVPWVRLAQRVPVRFALDKVPGDVTLVSGTTCSIAVGQ | 6.427 ± 0.064 h | 4.89 ± 0.55 h | 6.39 ± 0.71 h | 6.46 ± 0.5 h | 5.645 ± 0.01 h | 3.43 ± 0.24 h | 6.64 ± 0.59 h | 11.2 ± 1.9 h | 6.093 ± 0.06 h | 14.4 ± 1.4 h | 6.58 ± 0.25 h | 12.5 ± 0.34 h
